Experimental findings from patent US20180148504A1 are described below.

The target in assay [1] is recombinant purified FRα (ECL assay calibrator) (human) (UniProt P15328). The experiment in a line: ECL sandwich capture 30G6.G6.G4.E9 / detection 1D2.G8.G10; calibrator incubated overnight with 10 µg/mL MORAb-003.
For assay [2] the target is unchanged. The experiment in a line: ECL sandwich competition; competitors 9F3 capture / 24F12 detection; FRα standard STD04; MORAb-003 50 µg/mL.
Assay [3] shares this target. The experiment in a line: ECL sandwich capture 1C6.E12.G8 / detection 19D4.B7; calibrator incubated overnight with 10 µg/mL MORAb-003.
Assay [4] shares this target. The experiment in a line: ECL sandwich capture 19D4.B7 / detection 26A9.C4; calibrator incubated overnight with 10 µg/mL MORAb-003.
Assay [5] shares this target. The assay can be described thus: ECL sandwich capture 19D4.B7 / detection 1D2.G8.G10; calibrator incubated overnight with 10 µg/mL MORAb-003.
In assay [6] the target is endogenous folate receptor alpha in human serum and plasma samples (human) (UniProt P15328). The assay can be described thus: ECL sandwich capture 19D2.G9 / detection 26A9.C4; serum incubated overnight with 10 µg/mL MORAb-003.
Chain of endogenous folate receptor alpha in human serum and plasma samples (human) (P15328 25-234 limits assumed, form in doubt): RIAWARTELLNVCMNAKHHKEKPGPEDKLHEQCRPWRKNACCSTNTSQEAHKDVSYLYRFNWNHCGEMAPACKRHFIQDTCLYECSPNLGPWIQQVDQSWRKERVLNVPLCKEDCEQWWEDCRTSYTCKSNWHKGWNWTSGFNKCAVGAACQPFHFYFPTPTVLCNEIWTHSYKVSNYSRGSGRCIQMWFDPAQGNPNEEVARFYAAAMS
Assay [7] has as its target recombinant purified FRα (ECL assay calibrator) (human) (UniProt P15328). The assay can be described thus: ECL sandwich competition; competitors 9F3 capture / 24F12 detection; FRα standard STD02; MORAb-003 50 µg/mL.
For assay [8], the target named is endogenous folate receptor alpha in human serum and plasma samples (human) (UniProt P15328). The assay can be described thus: ECL sandwich competition; competitors 24H8.D3 capture / 19D4.B7 detection; plasma of sample #DLSO-015; MORAb-003 100 µg/mL.
The target is the same in assay [9]. The experiment in a line: ECL sandwich capture 24H8.F3 / detection 30G6.G6.G4.E9; serum incubated overnight with 10 µg/mL MORAb-003.
Assay [10] addresses recombinant purified FRα (ECL assay calibrator) (human) (UniProt P15328). The experiment in a line: ECL sandwich competition; competitors 9F3 capture / 24F12 detection; FRα standard STD05; MORAb-003 50 µg/mL.
Assay [11] shares this target. The experiment in a line: ECL sandwich capture 2F11.F8 / detection 19D4.B7; calibrator incubated overnight with 10 µg/mL MORAb-003.
In assay [12] the target is endogenous folate receptor alpha in human serum and plasma samples (human) (UniProt P15328). The assay can be described thus: ECL sandwich capture 19D4.B7 / detection 26A9.C4; serum incubated overnight with 10 µg/mL MORAb-003.
For assay [13] the target is unchanged. The assay can be described thus: ECL sandwich capture 19D4.B7 / detection 24H8.D3; serum incubated overnight with 10 µg/mL MORAb-003.
Assay [14] has as its target recombinant purified FRα (ECL assay calibrator) (human) (UniProt P15328). The assay can be described thus: ECL sandwich capture 19D4.B7 / detection 19D2.G9; calibrator incubated overnight with 10 µg/mL MORAb-003.
For assay [15] the target is unchanged. The assay can be described thus: ECL sandwich capture 30G6.G6.G4.E9 / detection 6A2.G7; calibrator incubated overnight with 10 µg/mL MORAb-003.
Assay [16] concerns the target endogenous folate receptor alpha in human serum and plasma samples (human) (UniProt P15328). The experiment in a line: ECL sandwich capture 19D4.B7 / detection 19D2.G9; serum incubated overnight with 10 µg/mL MORAb-003.
Assay [17] has as its target recombinant purified FRα (ECL assay calibrator) (human) (UniProt P15328). The experiment in a line: ECL sandwich capture 19D4.B7 / detection 2F11.F8; calibrator incubated overnight with 10 µg/mL MORAb-003.
The target is the same in assay [18]. The assay can be described thus: ECL sandwich competition; competitors 9F3 capture / 24F12 detection; FRα standard STD07; MORAb-003 10 µg/mL.
Assay [19] shares this target. The experiment in a line: ECL sandwich capture 30G6.G6.G4.E9 / detection 5C12.H8; calibrator incubated overnight with 10 µg/mL MORAb-003.
Assay [20] concerns the target endogenous folate receptor alpha in human serum and plasma samples (human) (UniProt P15328). The assay can be described thus: ECL sandwich capture 19D4.B7 / detection 24H8.F3; serum incubated overnight with 10 µg/mL MORAb-003.
For assay [21], the target named is recombinant purified FRα (ECL assay calibrator) (human) (UniProt P15328). The assay can be described thus: ECL sandwich capture 24H8.F3 / detection 30G6.G6.G4.E9; calibrator incubated overnight with 10 µg/mL MORAb-003.
Assay [22] shares this target. The experiment in a line: ECL sandwich competition; competitors 9F3 capture / 24F12 detection; FRα standard STD01; MORAb-003 50 µg/mL.

Chain of recombinant purified FRα (ECL assay calibrator) (human) (P15328 25-234 limits assumed): as the sequence (P15328 25-234 limits assumed, form in doubt) above

B1: farletuzumab (MORAb-003) (antibody, part only; not given: Constant regions, V domains shown, not shown: another chain or arm of the molecule)
VH: EVQLVESGGGVVQPGRSLRLSCSASGFTFSGYGLSWVRQAPGKGLEWVAMISSGGSYTYYADSVKGRFAISRDNAKNTLFLQMDSLRPEDTGVYFCARHGDDPAWFAYWGQGTPVTVSS
VL: DIQLTQSPSSLSASVGDRVTITCSVSSSISSNNLHWYQQKPGKAPKPWIYGTSNLASGVPSRFSGSGSGTDYTFTISSLQPEDIATYYCQQWSSYPYMYTFGQGTKVEIK
Consider B1, for which the Drug Suppression of Cal Signal at 500 pg/mL is 8% in assay [1]; -11% in assay [3]; -14% in [4]; 2% in [5]; -2% in assay [11]; -19% in [14]. Moreover, the Drug Suppression of Cal Signal at 500 pg/mL is -5% in [15], -4% in assay [17], -7% in assay [19] and -6% in [21]. For the same molecule, the % of signal without MORAb-003 (MORAb-003 interference) in assay [2] is 57%; in assay [7], 49%; in [10], 75%; in assay [18] it was 87%; in assay [22], 54%. Besides, the Drug suppression of serum in assay [6] is -55.6%; in [9], -0.93%; in [12], -3.77%; in [13] it was 4.49%; in [16], -3.38%; in assay [20] it was -10.6%. Also, the percent inhibition (sample #DLSO-015, plasma) in assay [8] was found to be 10%.
